Laboratory results as given in paper doi:10.1101/2021.12.01.470723 (bioRxiv, 2021).

Columns and labels:
[1] = molecular target: the molecule itself; test: SEC; purified rh proSP-C BRICHOS variants on Superdex 200 GL
[2] = molecular target: the molecule itself; test: SEC; rh Bri2 BRICHOS D148N monomer fraction at 0.5, 1, 5, 10, 15 and 100 µmol L^-1; monomer to dimer
[3] = molecular target: the molecule itself; test: SEC; Bri2 BRICHOS species after thrombin removal of His6-NT* from the fusion protein's monomer, dimer and oligomer fractions; 20 mmol L^-1 NaPi, 0.2 mmol L^-1 EDTA
[4] = molecular target: the molecule itself; test: other fluorescence titration; Trp fluorescence of 2 µmol L^-1 rh Bri2 BRICHOS T206W monomers, 20 mmol L^-1 NaPi, 0.2 mmol L^-1 EDTA, pH 6.3-8.0; excitation 280 nm; monomer to dimer

B1: recombinant human (rh) wildtype proSP-C BRICHOS (domain or fragment, UniProt P11686 86-197, looked up)
chain: EHLVTTATFSIGSTGLVVYDYQQLLIAYKPAPGTCCYIMKIAPESIPSLEALTRKVHNFQMECSLQAKPAVPTSKLGQAEGRDAGSAPSGGDPAFLGMAVSTLCGEVPLYYI
notes: human prosurfactant protein C (proSP-C), BRICHOS domain, residues 86-197; By SEC mainly a trimer, with some dimers and monomers; also called rh proSP-C BRICHOS; wt proSP-C BRICHOS; source: E. coli Origami 2 (DE3) pLysS, purified (Ni-NTA, ion exchange QFF; thrombin cleavage); not shown: thioredoxin, N-terminal, cleaved
For B1, the “stoichiometry N” value [1] was 3.

B2: rh proSP-C BRICHOS D105N (domain or fragment, human, UniProt P11686 86-197, looked up)
chain: EHLVTTATFSIGSTGLVVYNYQQLLIAYKPAPGTCCYIMKIAPESIPSLEALTRKVHNFQMECSLQAKPAVPTSKLGQAEGRDAGSAPSGGDPAFLGMAVSTLCGEVPLYYI
notes: human prosurfactant protein C (proSP-C), BRICHOS domain, residues 86-197, with D105N; By SEC a trimer, with more dimers and less monomers than the wildtype; also called D105N mutant; source: E. coli Origami 2 (DE3) pLysS, purified (Ni-NTA, ion exchange QFF; thrombin cleavage); not shown: thioredoxin, N-terminal, cleaved
B2 was tested, and the “stoichiometry N” value [1] was 3.

B3: rh Bri2 BRICHOS D148N (domain or fragment, human, UniProt Q9Y287 113-231, looked up)
chain: QTIEENIKIFEEEEVEFISVPVPEFADSDPANIVHNFNKKLTAYLDLNLDKCYVIPLNTSIVMPPRNLLELLINIKAGTYLPQSYLIHEHMVITDRIENIDHLGFFIYRLCHDKETYKL
notes: human integral membrane protein 2B (Bri2), BRICHOS domain, residues 113-231, with D148N; Isolated by SEC as monomer, dimer and oligomer fractions; the assay's format tells which fraction was used; also called D148N mutant; source: E. coli SHuffle T7, purified (Ni-NTA, thrombin cleavage, second Ni-NTA, SEC); not shown: His6, N-terminal, cleaved; NT* solubility tag, N-terminal, cleaved
B3 was tested, and the “ratio of dimers to monomers at 0.5 µmol L^-1” value [2] was ~1 dimers:monomers and the “stoichiometry N” value [3] was 2.

B4: rh Bri2 BRICHOS T206W (domain or fragment, human, UniProt Q9Y287 113-231, looked up)
chain: QTIEENIKIFEEEEVEFISVPVPEFADSDPANIVHDFNKKLTAYLDLNLDKCYVIPLNTSIVMPPRNLLELLINIKAGTYLPQSYLIHEHMVIWDRIENIDHLGFFIYRLCHDKETYKL
notes: human integral membrane protein 2B (Bri2), BRICHOS domain, residues 113-231, with T206W; Monomer and dimer fractions were used for Trp fluorescence; also called rh Bri2 BRICHOS Trp mutant; source: E. coli SHuffle T7, purified (Ni-NTA, thrombin cleavage, second Ni-NTA, SEC); not shown: His6, N-terminal, cleaved; NT* solubility tag, N-terminal, cleaved
B4: binds [4].
